In patent US20180258175A1 (ABLEXIS, published 2018):

B1: CCL-223A (antibody, V domains shown)
VH: QVQLQESGPGLVKPSETLSLTCTVSGGSISSYYWSWIRQPAGKGLEWIGRIYTSGSTNYNPSLKSRVSMSVDTSKNQFSLKLSSVTAADTAVYYCARERIIWFDPWGQGTLVTVSS
VL: not shown
notes: AlivaMab chimeric IgG, human lambda LC
B2: CCL-207A (antibody, V domains shown)
VH: QVQLQESGPGLVKPSETLSLTCTVSGGSISSYYWSWIRQPAGKGLEWIGRIYTSGTTNYNPSLKSRVTMSVDTSKNQFSLKLNSVTAADTAVYYCARERVIWFDPWGQGTLVTVSS
VL: not shown
notes: as for B1
B3: CCL-220A (antibody, V domains shown)
VH: QVQLQESGPGLVKPSETLSLTCTVSGGSISSYYWSWIRQPAGKGLEGIGRIYTSGSTNYNPSLKSRVTMSVDTSKNQFSLKLSSVTAADTAVYYCARERLYGMDVWGQGTTVTVSS
VL: not shown
notes: as for B1
B4: CCL-226A (antibody, V domains shown)
VH: QVQLQESGPGLVKPSETLSLTCTVSGASISSYYWSWIRQPPGKGLEWIGYFYYSGSTNYSPSLKSRVTFSVDTSKNQFSLKLSSVTAADTAVYFCARGKVGVPFDYWGQGTLVTVSS
VL: not shown
notes: as for B1
B5: CCL-235A (antibody, V domains shown)
VH: QVQLQESGPGLVKPSETLSLTCTVSGGSISSYYWSWIWQPAGKGLEWIGRIYTSGSTNYNPSLKSRVTMSVDTPKNQFSLKLSSVTAADTAVYYCARERLTGAFDIWGQGTMVTVSS
VL: not shown
notes: as for B1
B6: CCL-253A (antibody, V domains shown)
VH: QVQLQESGPGLVKPSETLSLTCTVSGGSISSYYWSWIRQPAGKGLEWIGRIYTSGSTNYNPSLKSRVTMSVDTSKNQFSLKLSSMTAADTAVYYCARDRLGRAFDIWGQGTMVTVSS
VL: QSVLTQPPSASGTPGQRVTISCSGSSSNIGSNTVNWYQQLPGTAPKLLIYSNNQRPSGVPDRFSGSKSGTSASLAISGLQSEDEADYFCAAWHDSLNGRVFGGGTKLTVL
notes: as for B1
B7: CCL-301A (antibody, V domains shown)
VH: QVQLQESGPGLVKPSETLSLTCTVSGGSISSYYWSWIRQPAGKGLEWIGRIYTSGYTNYNPSLKSRVSMSVDTSKNQFSLKLSSVTAADTAVYYCARERLGAFFDYWGQGTLVTVSS
VL: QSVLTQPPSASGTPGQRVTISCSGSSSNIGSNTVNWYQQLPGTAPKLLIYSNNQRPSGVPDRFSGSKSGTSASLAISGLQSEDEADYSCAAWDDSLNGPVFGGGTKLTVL
notes: as for B1
B8: CCL-303A (antibody, V domains shown)
VH: QVQLQESGPGLVKPSETLSLTCTVSGGSISSYYWSWIRQPPGKGLEWIGYIYYSGSTNYNPSLKSRVTISVDTSKNQFSLKLSSVTAADTAVFYCARITVTSAFDIWGQGTMVTVSS
VL: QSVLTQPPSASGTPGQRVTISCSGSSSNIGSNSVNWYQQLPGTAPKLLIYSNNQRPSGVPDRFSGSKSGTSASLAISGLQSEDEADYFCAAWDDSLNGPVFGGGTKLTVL
notes: as for B1
B9: CCL-320A (antibody, V domains shown)
VH: QVQLQESGPGLVKPSETLSLTCTVSVGSISSYYWSWIRQPAGKGLEWIGRIYASGSTNYNPSLKSRVTMSVDTSKNQFSLKLTSVTAADTAVYYCARERVGIYFDYWGQGTLVTVSS
VL: not shown
notes: as for B1
B10: CCL-322A (antibody, V domains shown)
VH: QVQLQESGPGLVKPSETLSLTCTVSGGSISSYYWSWIRQPAGKGLEWIGRIYTSGSIKYNPSLKSRVAMSVDTSKNQFSLKLSSVTAADTAVYYCAREGILGYFDYWGQGTLVTVSS
VL: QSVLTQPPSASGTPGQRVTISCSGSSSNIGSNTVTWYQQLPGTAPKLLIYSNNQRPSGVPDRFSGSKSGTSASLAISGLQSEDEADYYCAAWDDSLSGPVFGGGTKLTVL
notes: as for B1
B11: CCL-339A (antibody, V domains shown)
VH: QVQLQESGPGLVKPSETLSLTCTVSGGSISSNYWSWIRQPAGKGLEWIGRIYTSGSTKYNPSLKSRVTMSVDTSKNQFSLKLSSVTAADTAVYYCAREGIVGAFHYWGQGALVTVSS
VL: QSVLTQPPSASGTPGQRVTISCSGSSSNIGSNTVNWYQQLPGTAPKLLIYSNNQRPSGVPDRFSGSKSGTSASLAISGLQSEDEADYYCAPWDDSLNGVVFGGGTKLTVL
notes: as for B1
B12: CCL-341A (antibody, V domains shown)
VH: QVQLQESGPGLVKPSETLSLTCTVSGGSISSYYWSWIRQPAGKGLEWIGRIYTSGSTNYNPSLKSRVTMSVDTSKNQFSLKLSSVTAADTAVYYCARERLGMFFDYWGQGTLVTVSS
VL: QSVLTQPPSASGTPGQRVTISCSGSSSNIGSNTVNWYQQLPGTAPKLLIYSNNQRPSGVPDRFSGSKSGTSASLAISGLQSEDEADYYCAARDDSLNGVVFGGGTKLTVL
notes: as for B1
B13: CCL-344A (antibody, V domains shown)
VH: QVQLQESGPGLVKPSETLSLTCTVSGGSISSYYWSWIRQPAGKGLEWIGRIYTSGSTNYNPSLKSRVTMSVDTSKNQFSLKLSSVTAADTAVYYCARERLGMFFDYWGQGTLVTVSS
VL: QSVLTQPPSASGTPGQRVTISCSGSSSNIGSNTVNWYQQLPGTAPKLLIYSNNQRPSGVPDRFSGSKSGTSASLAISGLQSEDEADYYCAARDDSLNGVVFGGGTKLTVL
notes: as for B1

These binders were tested against T1, human CD115 extracellular domain (Sino Biological 10161-H08H) (human, UniProt P07333 20-517) (assay: ELISA, supernatant on huCD115).
T1 construct: extracellular domain; bought recombinant protein; also called huCD115; hu-CD115

Binding result, binds:
B1
B2
B3
B4
B5
B6
B7
B8
B9
B10
B11
B12
B13
